Common to all, as to assay: SEC; HiLoad Superdex 200 26/60 gel-filtration column, 50 mM NaCl, 20 mM Tris-HCl pH 8.0; oligomeric state read from the elution
Data set [1] deals with carbamate kinase (CK) from Mycoplasma penetrans (Mycoplasma penetrans).
Data set [2] has as its target short-ADI (arginine deiminase from Mycoplasma penetrans, form initiating at Met43 and ending at Lys452) (Mycoplasma penetrans).
Data set [3] deals with the molecule itself.

“carbamate kinase (CK) from Mycoplasma penetrans (enzyme)” gave a stoichiometry N in data set [1] of 2.
The molecule “short-ADI (arginine deiminase from Mycoplasma penetrans, form initiating at Met43 and ending at Lys452) (enzyme)” came in with a stoichiometry N in data set [2] of 2.

B1: ornithine carbamoyltransferase (OTC) from Mycoplasma penetrans (enzyme, UniProt Q8EVF5 1-342, looked up)
chain: MPVNLKGRSLDSLLNFTTEEVQHLIDLSIDLKKAKYQGLHINNRPLVGKNIAILFQKDSTRTRCAFEVAASDLGAGVTYIGPSGSNMGKKESIEDTAKVLGRFYDGIEFRGFAQSDVDALVKYSGVPVWNGLTDDEHPTQIIADFMTMKEKFGNLKNKKIVFIGDYKNNVGVSTMIGAAFNGMHVVMCGPDNYKNEIDKNVLAKCIELFKRNGGSLRFSTDKILAAQDADVIYTDVWVSLGEPFELFDKRIGELKNFQVDMNMIKAAKNDVIFLHCLPAFHDDHTSFSKEVATTLGAKYPIVAKGEMEVTDEVFQSLHNKAFDQAENRMHSIKAIILSTIGY
notes: ornithine carbamoyltransferase (OTC, EC 2.1.3.3), arcB gene product of Mycoplasma penetrans strain GTU-54; traced from Met1 to Tyr342; TGA codons for Trp129 and Trp237 changed to TGG (no change of the amino acids); Dodecamer of four catalytic homotrimers; also called MpOTC; ornitine transcarbamylase; copies: 12
As for B1, the “stoichiometry N” value in data set [3] stood at 12.

The values above are taken from publication PMC3474736, “Structural Characterization of the Enzymes Composing the Arginine Deiminase Pathway in Mycoplasma penetrans” (PLoS ONE, 2012).
